Test: soluble on expression in E. coli; label from the status in PepcDB or PDB records

Soluble on expression in E. coli, soluble:
MLKHIISAYNFSRDELEDIFALTDKYSKNLNDTRKILSGKTISIAFFEPSTRTYLSFQKAIINLGGDVIGFSGEESTSVAKGENLADTIRMLNNYSDGIVMRHKYDGASRFASEISDIPVINAGDGKHEHPTQAVIDIYTINKHFNTIDGLVFALLGDLKYARTVNSLLRILTRFRPKLVYLISPQLLRARKEILDELNYPVKEVENPFEVINEVDVLYVTRIQKERFVDEMEYEKIKGSYIVSLDLANKMKKDSIILHPLPRVNEIDRKVDKTTKAKYFEQASYGVPVRMSILTKIYGE
MSLAKELLIKNACVYDPLNGIEGEVMDIGVKDGKIVDPSEVDESKAKVIDAEGRLTMAGGVDIHAHVAGPKVNVGRIFRPEDSRRLQVAIKKLGTRSGTGFSVPSTTITGYLYAQMGYTTVMEAATPPLLTRHTHEEIRDTPILDEGAYTLMANNWILYEYIKEGELEKAAAYAAWLLRATKGFVIKMVNPGGTEAWGWGENVHSLDDPVPYFEITPAEIYQNYVKINEMLGLPHSIHIHPNLLGEPGNYEITTDSWDVIKKTGVEPNPEIGEREQVVHNTHVQFHSYGGDSWPTFESKAEEVAKYLNKNDHVTVDLGAVTLDETTTMTADGPLEWELQELTGFKWANYDVELETGSGVVPFIYSPKNPVHSVQWAIGLEIALLTENPWQVVISTDHPNAGPFIRYPRIIAWLMSEPYREEWIENVHPWVGQRAAIATIDREYTWTDITITTRAAPAKMLGLSDRIGHLGEGAYAHIAIYDIKPDEVDPSRDYEEVEKAMEQAWLVVKDGEIVVQEGVVVNEPVGRTYWVDVKVPEDLLEEVKKDLETKFRRYYSVNLGNYQVQDVYIPKEERIVIDARDRLSEGHHHHHH
MPHDPGATRLLAISPHLDDAVLSFGAGLAQAAQDGANVLVYTVFAGAAQPPYSPAAQRMHTIWGLAPDDDAVLYRRKEDIAALDHLRVAHRHGRFLDSIYRKLPDGRWLTAHVEGRQKLAVNDHSPDSDHDLVGEVADDIRSIIDEFDPTLVVTCAAIGEHPDHEATRDAALFATHEKNVPVRLWEDLPYAVFKSGAVELPQGFRLGSADVSSVKPEMRSQKFQAVERYSSQMVLLNGSENNLFDRLDEHARQNAPHGGYGETTWPVVRSDDS
MSLQRFKFLMYQVVASDLDGTLLSPDHTLSPYAKETLKLLTARGINFVFATGRHHVDVGQIRDNLEIKSYMITSNGARVHDLDGNLIFAHNLDRDIASDLFGVVNDNPEIITNVYRDDEWFMNRHRPEEMRFFKEAVFNYALYEPGLLEPEGVSKVFFTCDSHEKLLPLEQAINARWGDRVNVSFSTLTCLEVMAGGVSKGHALEAVAKKLGYSLQDCIAFGDGMNDAEMLSMAGKGCIMGSAHQRLKDLHPELEVIGTNAEDAVPHYLRKLYLSEGHHHHHH
MSLSKHHIIVKSGSTLEQLAKAKTFAFDKTGTLTQNQLVIQDVLPENGFDKETIQSYAASLEQQSDHIIANSLVQGTDKNLIQAVSNLQESTGNGVSGTVDGKNVMVGKLSYVAPDANVNKAKTTAVYVSVDGKYAGCITFKDRLRPETPQTLARLRKQGAKHIMMLTGDNKDVAQAIADVAGVDDVRASLLPAQKIEAIKNVAPENRPVVMTGDGINDAPSLTAADVGIAMGAKGASAASESADAVIMVNDLSKINDAVAIAKHTMKVAEGHHHHHH
MSEVTRSLLQRWGASLRRGADFDSWGQLVEAIDEYQILARHLQKEAQAQHNNSEFTEEQKKTIGKIATCLELRSAALQSTQSQEEFKLEDLKKLEPILKNILTYNKEFPFDVQPI
MSLNLNVLEIKSFVPAQDFTTSKQFYLSLGFELITEFGDVAYLRLGQCAFLLQNTHQRPHQGNTMMHLLVEDAQSWFDHVKTLQLEERFESKVTDLITQPWGMLEFCLVDPSDVLWRIGQRIGEGHHHHTTDPNSSSVDKLAAALEHHHHHH
MSLKKQRIVVKIGSSSLTNSKGSIDEAKIREHVQAISVLKKAGHEMILITSGAVAAGFSSLGYPSRPVTIKGKQAAAAVGQTLLMQQYMNQFKQYSLTPGQILLTRNDFSKRERYRNAYATIMELLERGVIPIINENDSTSVEELTFGDNDMLSALVSGLIHADQLMILTDINGLYDANPNENPEAKRFDYLPEITPELLGYAGSAGSKVGTGGMKSKLLATQTALSLGVKVFIGTGSGEQKLADILDGRGDGTYIGDKELSSVNNTRQWIQFHSPISGEIIIDAGAEEAMIHNGSSLLPAGVVGVNGSFPKGAVVEVRGPGGVIGKGQTHYSSEEIMEAKGKRSDELDFEKTFEVIHEGHHHHHH

Soluble on expression in E. coli, not soluble:
SKFIAKQSVGAEVIDTPRTEEEAWLLNTVEAQARQWNLKTPEVAIYHSPEPNAFATGASRNSSLIAVSTGLLDHMTRDEVEAVLAHEMAHVGNGDM
SRRLEDLHPDLQPLAHSFLRRCTDAGLDVLIYCTYRSGAEQDQLYAQGRKGSPGPIVTNARAGQSAHNFTIQNRPAARAFDAVPMVGGKPQWDQKHPHWQIMGRIGTELG
MGSDKIHHHHHHMLDKIELFILDMDGTFYLDDSLLPGSLEFLETLKEKNKRFVFFTNNSSLGAQDYVRKLRNMGVDVPDDAVVTSGEITAEHMLKRFGRCRIFLLGTPQLKKVFEAYGHVIDEENPDFVVLGFDKTLTYERLKKACILLRKGKFYIATHPDINCPSKEGPVPDAGSIMAAIEASTGRKPDLIAGKPNPLVVDVISEKFGVPKERMAMVGDRLYTDVKLGKNAGIVSILVLTGETTPEDLERAETKPDFVFKNLGELAKAVQ
MGSDKIHHHHHHCKPAARSVITESSLIFTSIHSSYVISTYYKRCVVLSQRKEAVQNMNVYQLKEELIEYAKSIGVDKIGFTTADTFDSLKDRLILQESLGYLSGFEEPDIEKRVTPKLLLPKAKSIVAIALAYPSRMKDAPRSTRTERRGIFCRASWGKDYHDVLREKLDLLEDFLKSKHEDIRTKSMVDTGELSDRAVAERAGIGFSAKNCMITTPEYGSYVYLAEMITNIPFEPDVPIEDMCGSCTKCLDACPTGALVNPGQLNAQRCISFLTQTKGFLPDEFRTKIGNRLYGCDTCQTVCPLNKGKDFHLHPEMEPDPEIAKPLLKPLLAISNREFKEKFGHVSGSWRGKKPIQRNAILALAHFKDASALPELTELMHKDPRPVIRGTAAWAIGKIGDPAYAEELEKALEKEKDEEAKLEIEKGIELLKASGMTKQGLS
MGSDKIHHHHHHVIALLKAYKFRLYPTKPQQEYFVKTFGCVRFVYNKMLEERIQLYEDSKLNPDAKQKLPTPAKYKPEFPFLKEVDSLSLANAQMDLNQAYQNFFRDQSVGFPKFKSKHNDRASYTTNNLKGSIRIEDRKVKLPKIGFVKLKQHRPFDGVIKSATVSMTKTRKFFISILVDQAEAQWVPAQNKVGIDLGLEHFAILTNDEWVSEKVANPRFLRKSEEKIKKAQRALSRKKIGSKNREKARIILAKKHEKIAHQRQDFLHKLSKRMVDDNQVIVVETLKSKNMMKNHKIAKSIGDVSWYGFVRQLEYKCAFYGRTLIKADQWYASTQICSSCGVKGEKKTIDVREWMCTCGAHHDRDINASINLLLLAD
MKVERVERVEDIDFEGLLKEGYTCFFFDFDNTLVPWKESKLEESKRRLLIELAKKARVVVVSNGKPRKVDLPVMFIWRAGKPFSLKLWRFLKKEKIDPKRCVMIGDQIFTDVLTGKIFGFRVIKVEPISAKEFFGTKILRFFEKILEGKVR
MPTERPTTTAPVSLRERRRTAAAREILDAAEQHIGEHGPAALSLRAVARGLGMTVQALYHYFPNRDALVTALITKAYGELSDVLQAAADSVRADPATPRPVAVAEAYRGWGVARPEHFQLLYGTPLRYYAAPAEGPTTQAVRRMGAIFQRELFAGFTPAQLAAAEVPALSPSYREHLEQLPMHAQGDLPPAAASLFLSAWGHVHGLVVLEVFGHTAFLGDHQAEVFRTSVRMMLEDIHRRIPAA
MGSDKIHHHHHHMNLATSERAQLATLLLEKGPNFPTLCGDWNTQELAAHLLIRESRPWIAAGMFLPGGSRIVADAMRKITQQPFEHVVAQWMKGPKWGYLGRYLDSVANRIEHFVHHEDVRRGETTVGQWQNLDLLPCNAKPRVLSERHSGELYDAMRWVAPLLLRRSACPVVIEPIGFPRLVVADAGVVSTRGDCVVHVRGDIGEVVLWILGRNQVDLFVDGPTHLLKKSSL
MITLPTGTKIWIIAGITDMRCGFNGLASKVQNTLKDDPFSGHIFVFRGRSGKMVKILWADRDGLCLFAKRLERGRFVWPVTREGKVHLTPAQLSMLLEGIAWPHPKRTERPGIRI
